Patent US20030096306A1

Target: GCN4 leucine zipper (aa 245-285) fused C-terminal to LexA (yeast)
Test: cell-based or functional assay

growth on -Trp/-Leu/-His plates with 3-AT (HIS3 reporter, two hybrid): 20 mM 3-AT
Substance: Gal4 AD-anti-GCN4 (H-R66K) scFv (from UniProt P04386 768-881)
